{
  "source": "patent US20040171105",
  "proteins": {"B1": {"name": "OmiΔ8 (Omi without the AVPS tetrapeptide, C-terminal hexa-His tagged) (protein)", "chain": "PPPASPRSQYNFIADVVEKTAPAVVYIEILDRHPFLGREVPISNGSGFVVAADGLIVTNAHVVADRRRVRVRLLSGDTYEAVVTAVDPVADIATLRIQTKEPLPTLPLGRSADVRQGEFVVAMGSPFALQNTITSGIVSSAQRPARDLGLPQTNVEYIQTDAAIDFGNSGGPLVNLDGEVIGVNTMKVTAGISFAIPSDRLREFLHRGEKKNSSSGISGSQRRYIGVMMLTLSPSILAELQLREPSFPDVQHGVLIHKVILGSPAHRAGLRPGDVILAIGEQMVQNAEDVYEAVRTQSQLAVQIRRGRETLTLYVTPEVTEHHHHHH"}, "B2": {"name": "endogenous caspase-9 of HeLa S100 extract, activated by dATP and cytochrome c (protein)", "chain": "MDEADRRLLRRCRLRLVEELQVDQLWDALLSRELFRPHMIEDIQRAGSGSRRDQARQLIIDLETRGSQALPLFISCLEDTGQDMLASFLRTNRQAAKLSKPTLENLTPVVLRPEIRKPEVLRPETPRPVDIGSGGFGDVGALESLRGNADLAYILSMEPCGHCLIINNVNFCRESGLRTRTGSNIDCEKLRRRFSSLHFMVEVKGDLTAKKMVLALLELAQQDHGALDCCVVVILSHGCQASHLQFPGAVYGTDGCPVSVEKIVNIFNGTSCPSLGGKPKLFFIQACGGEQKDHGFEVASTSPEDESPGSNPEPDATPFQEGLRTFDQLDAISSLPTPSDIFVSYSTFPGFVSWRDPKSGSWYVETLDDIFEQWAHSEDLQSLLLRVANAVSVKGIYKQMPGCFNFLRKKLFFKTS"}, "B3": {"name": "Omi WT (wild-type mature Omi/HtrA2, C-terminal hexa-His tagged, recombinant from E. coli) (protein)", "chain": "AVPSPPPASPRSQYNFIADVVEKTAPAVVYIEILDRHPFLGREVPISNGSGFVVAADGLIVTNAHVVADRRRVRVRLLSGDTYEAVVTAVDPVADIATLRIQTKEPLPTLPLGRSADVRQGEFVVAMGSPFALQNTITSGIVSSAQRPARDLGLPQTNVEYIQTDAAIDFGNSGGPLVNLDGEVIGVNTMKVTAGISFAIPSDRLREFLHRGEKKNSSSGISGSQRRYIGVMMLTLSPSILAELQLREPSFPDVQHGVLIHKVILGSPAHRAGLRPGDVILAIGEQMVQNAEDVYEAVRTQSQLAVQIRRGRETLTLYVTPEVTEHHHHHH"}, "B4": {"name": "Omi SA (protease dead mutant Omi S306→Ala, C-terminal hexa-His tagged) (protein)", "chain": "B3 chain with S173A"}, "B5": {"name": "OmiΔPDZ (Omi with the PDZ domain deleted, C-terminal hexa-His tagged) (protein)", "chain": "AVPSPPPASPRSQYNFIADVVEKTAPAVVYIEILDRHPFLGREVPISNGSGFVVAADGLIVTNAHVVADRRRVRVRLLSGDTYEAVVTAVDPVADIATLRIQTKEPLPTLPLGRSADVRQGEFVVAMGSPFALQNTITSGIVSSAQRPARDLGLPQTNVEYIQTDAAIDFGNSGGPLVNLDGEVIGVNTMKVTAGISFAIPSDRLREFLHRGEKKNSSSGISGSQHHHHHH"}},
  "key": {"[1]": {"molecular_target": "GST fusion form of full-length human cIAP1, Q13490", "sequence (Q13490 whole entry, the tested form may be a part)": "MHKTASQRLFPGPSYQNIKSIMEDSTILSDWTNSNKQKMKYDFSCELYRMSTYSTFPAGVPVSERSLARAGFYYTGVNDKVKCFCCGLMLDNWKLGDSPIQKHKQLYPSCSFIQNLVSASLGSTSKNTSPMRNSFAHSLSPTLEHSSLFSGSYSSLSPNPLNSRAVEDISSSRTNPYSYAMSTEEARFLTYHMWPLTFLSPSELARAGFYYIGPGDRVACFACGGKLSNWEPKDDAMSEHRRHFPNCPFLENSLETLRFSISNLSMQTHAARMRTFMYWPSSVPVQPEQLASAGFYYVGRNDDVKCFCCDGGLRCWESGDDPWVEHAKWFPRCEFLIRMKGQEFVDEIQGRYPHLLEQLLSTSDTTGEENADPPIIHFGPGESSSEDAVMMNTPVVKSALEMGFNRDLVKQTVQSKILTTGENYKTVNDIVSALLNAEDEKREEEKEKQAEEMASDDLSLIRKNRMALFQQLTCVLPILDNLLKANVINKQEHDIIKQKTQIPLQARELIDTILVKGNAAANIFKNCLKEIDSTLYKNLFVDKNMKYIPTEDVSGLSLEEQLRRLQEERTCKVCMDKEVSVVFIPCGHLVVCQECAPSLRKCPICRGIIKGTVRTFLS"}, "[2]": {"molecular_target": "GST fusion form of full-length human cIAP2, Q13489", "sequence (Q13489 whole entry, the tested form may be a part)": "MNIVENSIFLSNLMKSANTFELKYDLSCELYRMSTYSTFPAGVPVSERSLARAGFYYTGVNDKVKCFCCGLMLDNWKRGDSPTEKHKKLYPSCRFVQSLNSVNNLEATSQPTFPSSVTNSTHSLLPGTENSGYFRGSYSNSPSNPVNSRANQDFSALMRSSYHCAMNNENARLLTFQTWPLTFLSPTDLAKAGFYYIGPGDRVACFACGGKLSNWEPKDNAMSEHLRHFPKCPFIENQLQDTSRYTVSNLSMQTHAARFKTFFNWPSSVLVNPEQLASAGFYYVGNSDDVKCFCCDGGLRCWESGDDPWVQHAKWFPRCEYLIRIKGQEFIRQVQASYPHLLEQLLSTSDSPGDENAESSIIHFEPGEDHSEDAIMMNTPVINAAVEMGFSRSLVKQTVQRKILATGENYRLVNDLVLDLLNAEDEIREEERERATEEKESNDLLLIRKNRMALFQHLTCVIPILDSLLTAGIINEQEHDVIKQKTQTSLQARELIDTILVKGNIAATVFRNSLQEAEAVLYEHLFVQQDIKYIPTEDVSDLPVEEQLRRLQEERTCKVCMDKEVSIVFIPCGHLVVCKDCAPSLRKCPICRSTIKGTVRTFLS"}, "[3]": {"molecular_target": "T1, GST fusion form of full-length Drosophila DIAP1, Q24306", "T1 chain": "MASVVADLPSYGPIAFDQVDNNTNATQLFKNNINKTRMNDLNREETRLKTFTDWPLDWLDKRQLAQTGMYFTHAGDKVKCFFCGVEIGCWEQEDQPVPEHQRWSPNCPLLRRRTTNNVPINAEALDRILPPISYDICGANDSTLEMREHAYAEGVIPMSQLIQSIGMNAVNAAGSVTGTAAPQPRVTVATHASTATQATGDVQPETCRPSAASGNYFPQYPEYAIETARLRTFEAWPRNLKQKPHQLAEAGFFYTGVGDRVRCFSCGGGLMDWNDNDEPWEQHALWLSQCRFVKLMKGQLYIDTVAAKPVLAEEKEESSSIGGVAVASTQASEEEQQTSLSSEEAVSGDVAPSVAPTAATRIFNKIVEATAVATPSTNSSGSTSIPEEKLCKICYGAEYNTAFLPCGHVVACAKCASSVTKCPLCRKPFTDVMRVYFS"}, "[4]": {"molecular_target": "GST fusion form of full-length human XIAP, P98170", "sequence (P98170 whole entry, the tested form may be a part)": "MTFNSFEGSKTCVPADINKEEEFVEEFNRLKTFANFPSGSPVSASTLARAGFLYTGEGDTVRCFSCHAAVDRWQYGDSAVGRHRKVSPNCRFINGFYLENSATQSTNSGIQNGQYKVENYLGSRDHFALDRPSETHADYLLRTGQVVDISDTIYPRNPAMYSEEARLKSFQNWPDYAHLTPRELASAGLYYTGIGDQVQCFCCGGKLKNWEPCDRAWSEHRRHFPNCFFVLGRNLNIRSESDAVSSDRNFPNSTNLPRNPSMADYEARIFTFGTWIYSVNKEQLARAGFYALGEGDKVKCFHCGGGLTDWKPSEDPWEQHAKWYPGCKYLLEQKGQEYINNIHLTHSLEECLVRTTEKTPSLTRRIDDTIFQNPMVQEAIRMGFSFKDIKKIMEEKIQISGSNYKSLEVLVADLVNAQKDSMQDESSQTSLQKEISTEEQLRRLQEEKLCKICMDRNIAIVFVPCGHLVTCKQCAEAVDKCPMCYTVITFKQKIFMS"}, "[5]": {"molecular_target": "mutant cIAP1 (recombinant cIAP1 mutated at the three preferred Omi cleavage sites, GST fusion) [GST: P08515]"}, "[6]": {"molecular_target": "T2, Smac (purified recombinant), Q9NR28", "T2 chain": "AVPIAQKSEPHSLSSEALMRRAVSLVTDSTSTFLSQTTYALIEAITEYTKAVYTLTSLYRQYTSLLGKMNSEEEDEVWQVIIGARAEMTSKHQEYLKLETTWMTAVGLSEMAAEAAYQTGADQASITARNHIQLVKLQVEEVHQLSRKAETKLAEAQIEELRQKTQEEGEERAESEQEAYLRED"}, "[7]": {"molecular_target": "T3, Livin α (human, N-terminal hexa-His tagged), Q96CA5", "T3 chain": "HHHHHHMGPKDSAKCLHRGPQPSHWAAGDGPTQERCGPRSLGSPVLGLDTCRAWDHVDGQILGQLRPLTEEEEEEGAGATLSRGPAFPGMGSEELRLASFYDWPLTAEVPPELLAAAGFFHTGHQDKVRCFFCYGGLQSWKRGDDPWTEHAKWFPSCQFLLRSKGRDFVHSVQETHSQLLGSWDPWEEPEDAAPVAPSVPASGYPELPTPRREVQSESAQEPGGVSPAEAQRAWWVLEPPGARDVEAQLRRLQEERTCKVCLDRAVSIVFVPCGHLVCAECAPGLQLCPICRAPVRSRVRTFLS"}, "[8]": {"molecular_target": "T4, Livin β (human, N-terminal hexa-His tagged), Q96CA5", "T4 chain": "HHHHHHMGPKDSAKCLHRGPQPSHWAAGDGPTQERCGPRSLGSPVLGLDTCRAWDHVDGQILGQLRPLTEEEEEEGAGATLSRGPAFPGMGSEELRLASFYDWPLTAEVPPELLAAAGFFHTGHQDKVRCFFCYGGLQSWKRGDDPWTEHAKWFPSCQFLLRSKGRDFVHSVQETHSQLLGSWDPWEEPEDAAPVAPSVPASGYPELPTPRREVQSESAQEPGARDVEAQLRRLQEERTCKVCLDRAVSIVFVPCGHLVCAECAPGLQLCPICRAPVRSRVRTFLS"}},
  "note": "Where a chain is given by its changes, count along the chain named.",
  "data": [
    {"protein": "B1", "values": [
      {"measurement": "cleavage of cIAP1 in vitro (SDS-PAGE, silver staining)", "setting": "[1]", "result": "A concentration (25 nM), 10-fold higher than the wild-type, was required to cleave IAP"},
      {"measurement": "proteolytic efficiency against Omi WT", "setting": "[1]", "result": "The proteolytic efficiency of Omi?8 was, therefore, 10-fold lower than that of Omi WT regarding cIAP1 cleavage"}
    ]},
    {"protein": "B2", "values": [
      {"measurement": "caspase activity in HeLa extracts (cleavage of 35S-labeled procaspase-3)", "setting": "[1]", "result": "Caspase activity was completely inhibited by 250 nM of cIAP1"}
    ]},
    {"protein": "B3", "values": [
      {"measurement": "cleavage of IAP in vitro", "setting": "[2]", "result": "the wild-type Omi cleaved various forms of IAP proteins, including cIAP1, cIAP2, XIAP, Livin α and Livin β"},
      {"measurement": "cleavage in vitro (Western blot, anti-Survivin; 25 nM Survivin, 150 nM Omi WT)", "setting": "Survivin, O15392", "result": "This cleavage activity, however, was absent for Survivin"},
      {"measurement": "cleavage of IAP in vitro", "setting": "[3]", "result": "As shown in FIG. 1A, Omi WT cleaved IAP proteins"},
      {"measurement": "cleavage of IAP in vitro", "setting": "[4]", "result": "the wild-type Omi cleaved various forms of IAP proteins, including cIAP1, cIAP2, XIAP, Livin α and Livin β"},
      {"measurement": "IAP cleavage and caspase reactivation in HeLa S100 extracts", "setting": "[5]", "result": "Omi at 75 or 10 nM resulted in similar amount IAP cleavage and caspase reactivation for mutant and wild-type cIAP1, respectively"},
      {"measurement": "resistance to Omi protease against wild-type cIAP1", "setting": "[5]", "result": "mutant cIAP1 is ˜7.5-fold more resistant to Omi protease"},
      {"measurement": "proteolytic processing of Smac by Omi", "setting": "[6]", "result": "Smac, therefore, was not cleavable by Omi"},
      {"measurement": "cleavage of Livin in vitro (Western blot, anti-Livin)", "setting": "[7]", "result": "Omi WT cleaved Livin α and Livin β"},
      {"measurement": "cleavage of Livin in vitro (Western blot, anti-Livin)", "setting": "[8]", "result": "Omi WT cleaved Livin α and Livin β"},
      {"measurement": "IAP cleavage and caspase reactivation in HeLa S100 extracts", "setting": "[1]", "result": "Omi at 75 or 10 nM resulted in similar amount IAP cleavage and caspase reactivation for mutant and wild-type cIAP1, respectively"},
      {"measurement": "cleavage of cIAP1 in vitro (SDS-PAGE, silver staining)", "setting": "[1]", "result": "Wild-type Omi (Omi WT) protein at 2.5 nM (nano Molar) almost completely cleaved 50 nM cIAP1"}
    ]},
    {"protein": "B4", "values": [
      {"measurement": "cleavage of cIAP1 in vitro (Western blot, anti-GST)", "setting": "[1]", "result": "Omi WT cleaved the cIAP1, but the Omi SA did not"}
    ]},
    {"protein": "B5", "values": [
      {"measurement": "cleavage of cIAP1 in vitro (SDS-PAGE, silver staining)", "setting": "[1]", "result": "The Omi?PDZ at 2.5 nM cleaved the full-length cIAP1 molecules into smaller fragments, whereas the Omi WT enzyme, at the same concentration, still left some uncleaved full-length cIAP1 molecules"}
    ]}
  ]
}
